The text below walks through data of patent WO2002020615A2.

For assay [1], the target named is human chemokine receptor 5 (CCR5) (human) (UniProt P51681). The assay can be described thus: cell-based or functional assay.
A further assay deals with murine CCR5 (murine) (UniProt P51682). Put plainly: cell-based or functional assay.
UniProt P51682, sequence (P51682 whole entry): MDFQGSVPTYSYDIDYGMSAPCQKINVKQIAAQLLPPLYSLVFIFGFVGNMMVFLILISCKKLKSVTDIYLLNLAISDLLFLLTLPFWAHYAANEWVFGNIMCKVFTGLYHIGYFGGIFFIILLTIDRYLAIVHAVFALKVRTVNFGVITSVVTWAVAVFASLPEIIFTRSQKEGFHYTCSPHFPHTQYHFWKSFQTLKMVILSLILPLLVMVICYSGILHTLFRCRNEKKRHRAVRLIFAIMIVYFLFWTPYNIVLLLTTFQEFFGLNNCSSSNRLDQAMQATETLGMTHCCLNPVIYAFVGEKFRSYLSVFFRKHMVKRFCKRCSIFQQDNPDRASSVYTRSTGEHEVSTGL

In assay [1], “chemokine-toxin fusion protein RANTES-PE38” came in with a cytotoxicity on CCR5 positive CHO cells (48 h): concentration of complete destruction of 2 nM and a cytotoxicity on CHO cells expressing human CCR5 (40 h): concentration of complete killing of 10 nM. This substance also came in with a cytotoxicity on CHO cells expressing murine CCR5 (40 h, light microscopy) in the assay with murine CCR5 (murine) of 10 nM.
